The source of these data is publication PMC5314372.

The target in test [1] is bacteriophage ΦAB6 tailspike protein (bacteriophage ΦAB6). The test is described as follows: SEC; analytical gel-filtration column, single peak; calibration curve of log MW versus Ve/V0 with five protein markers. (In gel filtration, larger molecules generally elute earlier.)
Test [2] has the same target. The test is described as follows: AUC; sedimentation at 20,000 rpm, Beckman XL-A, An-60 Ti rotor; 25 mM Tris-HCl, 300 mM NaCl, pH 8.0; analysed with SEDFIT.
The target of test [3] is N-terminally-truncated ΦAB6 tailspike protein (residues 136-699) (bacteriophage ΦAB6). Described as above.
Test [4] has the same target. The test is described as follows: crystal structure; hanging-drop vapor diffusion at 20 °C; 1.0 M sodium malonate pH 7.0 or 0.9 M sodium citrate, 0.1 M sodium cacodylate pH 6.5; space group C2, one trimer in the asymmetric unit; free form and forms soaked with Ab-54149 polysaccharide.

For the substance “bacteriophage ΦAB6 tailspike protein (enzyme)”, the stoichiometry N in test [1] and in test [2] was 3 in each case.
In the case of “N-terminally-truncated ΦAB6 tailspike protein (residues 136-699) (domain or fragment)”, the stoichiometry N in test [3] and in test [4] was 3 in each case.
